Test in all cases: EMSA; Gel-shift buffer not given (as described in ref. 6); TnsD stored in 500 mM KCl, 50 mM Tris-HCl pH 8.0, 1 mM EDTA, 2 mM DTT, 25% glycerol
Holding throughout (conditions): protein: recombinant; tags: intein-chitin tag, cleaved with DTT

One data set addresses T1, TnsD C127S (Escherichia coli (transposon Tn7), UniProt P13991 1-508, C127S).
T1 sequence: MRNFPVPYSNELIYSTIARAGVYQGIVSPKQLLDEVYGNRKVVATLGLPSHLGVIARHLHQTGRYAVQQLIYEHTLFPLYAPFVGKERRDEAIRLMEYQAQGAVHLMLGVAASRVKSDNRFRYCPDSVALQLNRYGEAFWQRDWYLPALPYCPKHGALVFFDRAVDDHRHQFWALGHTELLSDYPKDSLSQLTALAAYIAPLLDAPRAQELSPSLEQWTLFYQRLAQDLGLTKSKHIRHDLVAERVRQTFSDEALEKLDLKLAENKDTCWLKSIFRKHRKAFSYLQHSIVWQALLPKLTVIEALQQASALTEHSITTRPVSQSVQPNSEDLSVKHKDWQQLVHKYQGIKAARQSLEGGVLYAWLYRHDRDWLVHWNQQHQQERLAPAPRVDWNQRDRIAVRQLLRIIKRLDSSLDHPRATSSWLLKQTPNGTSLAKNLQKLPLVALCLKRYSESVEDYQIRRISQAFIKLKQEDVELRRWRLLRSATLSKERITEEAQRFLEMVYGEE

A further data set has as its target T2, TnsD C152S (Escherichia coli (transposon Tn7), UniProt P13991 1-508, C152S).
T2 sequence: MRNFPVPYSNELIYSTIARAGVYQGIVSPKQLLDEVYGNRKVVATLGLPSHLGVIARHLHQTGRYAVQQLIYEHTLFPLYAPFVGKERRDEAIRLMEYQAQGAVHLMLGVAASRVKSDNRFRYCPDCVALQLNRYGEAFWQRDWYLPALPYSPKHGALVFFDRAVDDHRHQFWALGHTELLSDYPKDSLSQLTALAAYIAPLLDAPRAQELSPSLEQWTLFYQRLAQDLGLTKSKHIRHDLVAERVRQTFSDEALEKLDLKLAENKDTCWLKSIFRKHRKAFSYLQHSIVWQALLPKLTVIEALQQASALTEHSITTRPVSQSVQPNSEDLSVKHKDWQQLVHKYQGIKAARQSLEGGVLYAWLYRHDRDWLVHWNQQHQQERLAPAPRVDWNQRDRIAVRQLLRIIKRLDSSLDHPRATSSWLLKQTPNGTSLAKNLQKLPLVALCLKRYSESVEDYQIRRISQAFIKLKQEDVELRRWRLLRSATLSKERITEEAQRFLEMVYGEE

A further data set addresses T3, TnsD H155S (Escherichia coli (transposon Tn7), UniProt P13991 1-508, H155S).
T3 sequence: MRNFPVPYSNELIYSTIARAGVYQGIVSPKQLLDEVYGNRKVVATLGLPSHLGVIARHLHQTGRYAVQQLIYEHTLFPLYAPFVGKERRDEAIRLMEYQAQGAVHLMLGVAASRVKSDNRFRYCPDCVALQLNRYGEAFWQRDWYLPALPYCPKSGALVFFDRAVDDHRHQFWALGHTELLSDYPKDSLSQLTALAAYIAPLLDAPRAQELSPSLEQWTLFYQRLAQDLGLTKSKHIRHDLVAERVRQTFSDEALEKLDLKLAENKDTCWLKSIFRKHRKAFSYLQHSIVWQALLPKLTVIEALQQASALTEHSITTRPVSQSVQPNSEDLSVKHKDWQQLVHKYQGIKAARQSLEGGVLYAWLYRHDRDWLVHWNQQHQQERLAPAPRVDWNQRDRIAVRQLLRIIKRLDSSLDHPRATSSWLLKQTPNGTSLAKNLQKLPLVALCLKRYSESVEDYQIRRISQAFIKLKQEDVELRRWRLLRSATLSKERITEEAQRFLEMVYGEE

The target of a further data set is T4, TnsD wt (Escherichia coli (transposon Tn7), UniProt P13991 1-508).
T4 sequence: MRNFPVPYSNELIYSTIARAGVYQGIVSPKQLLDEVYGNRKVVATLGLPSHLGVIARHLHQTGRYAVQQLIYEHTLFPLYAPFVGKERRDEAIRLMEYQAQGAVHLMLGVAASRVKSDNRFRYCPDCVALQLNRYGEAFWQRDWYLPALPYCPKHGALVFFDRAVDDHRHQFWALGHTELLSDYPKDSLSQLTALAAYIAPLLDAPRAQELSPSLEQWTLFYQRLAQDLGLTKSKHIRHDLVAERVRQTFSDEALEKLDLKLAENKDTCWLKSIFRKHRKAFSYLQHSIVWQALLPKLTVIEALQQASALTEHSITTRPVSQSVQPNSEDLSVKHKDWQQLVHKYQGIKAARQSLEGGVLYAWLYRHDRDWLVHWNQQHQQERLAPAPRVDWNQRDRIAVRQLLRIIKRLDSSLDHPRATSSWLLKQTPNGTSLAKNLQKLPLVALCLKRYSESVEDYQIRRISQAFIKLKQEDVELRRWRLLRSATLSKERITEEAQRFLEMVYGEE

B1: attTn7 wt (+23 to +58) (dsDNA)
DNA 1: CCGCGTAACCTGGCAAAATCGGTTACGGTTGAGTAA
DNA 2: TTACTCAACCGTAACCGATTTTGCCAGGTTACGCGG
In the case of B1, the binding signal was 0.05 relative to wt with TnsD C127S, 0.05 relative to wt with TnsD C152S, 0.05 relative to wt with TnsD H155S and 1 relative to wt with TnsD wt.

These data come from publication PMC2918618, “Characterization of the TnsD-attTn7 complex that promotes site-specific insertion of Tn7” (Mobile DNA, 2010).
